The target of data set [1] is T1, Dif, truncated (RHD, NLS and 20 additional C-terminal residues), StrepTagII-tagged (Drosophila melanogaster).
T1 chain: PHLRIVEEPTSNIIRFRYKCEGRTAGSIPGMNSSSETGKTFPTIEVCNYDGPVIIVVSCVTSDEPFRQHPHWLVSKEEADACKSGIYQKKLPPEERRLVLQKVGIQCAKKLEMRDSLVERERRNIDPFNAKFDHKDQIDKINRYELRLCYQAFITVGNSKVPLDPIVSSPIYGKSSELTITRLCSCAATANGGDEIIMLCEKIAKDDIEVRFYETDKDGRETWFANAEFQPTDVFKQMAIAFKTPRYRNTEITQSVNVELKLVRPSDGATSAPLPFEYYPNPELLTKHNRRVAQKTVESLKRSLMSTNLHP
The data set is described as follows: SPR; Biacore 3000, room temperature; Dif immobilised on CM5 by amine coupling, Cactus as analyte (Table 1); kinetic titration; 10 mM HEPES pH 7.4, 150 mM NaCl, 3.4 mM EDTA, 0.005% P20; 1:1 Langmuir fit. Conditions: both partners purified. Background: In SPR one partner is held on a chip, and binding of the other changes the refractive index at the surface.

Data set [2] has as its target T2, Rel-49, the C-terminal IkB domain of Relish, N-terminal StrepTagII and C-terminal His tag (Drosophila melanogaster).
T2 construct: Rel-49, the C-terminal IkB fragment that is left after cleavage of compound Relish (Rel-110), Drosophila, GenBank AAF54333; Cloned without a stop codon into pET51-EK-LIC; source: E. coli BL21 (DE3), purified
T2 sequence (Q94527 whole entry, looked up): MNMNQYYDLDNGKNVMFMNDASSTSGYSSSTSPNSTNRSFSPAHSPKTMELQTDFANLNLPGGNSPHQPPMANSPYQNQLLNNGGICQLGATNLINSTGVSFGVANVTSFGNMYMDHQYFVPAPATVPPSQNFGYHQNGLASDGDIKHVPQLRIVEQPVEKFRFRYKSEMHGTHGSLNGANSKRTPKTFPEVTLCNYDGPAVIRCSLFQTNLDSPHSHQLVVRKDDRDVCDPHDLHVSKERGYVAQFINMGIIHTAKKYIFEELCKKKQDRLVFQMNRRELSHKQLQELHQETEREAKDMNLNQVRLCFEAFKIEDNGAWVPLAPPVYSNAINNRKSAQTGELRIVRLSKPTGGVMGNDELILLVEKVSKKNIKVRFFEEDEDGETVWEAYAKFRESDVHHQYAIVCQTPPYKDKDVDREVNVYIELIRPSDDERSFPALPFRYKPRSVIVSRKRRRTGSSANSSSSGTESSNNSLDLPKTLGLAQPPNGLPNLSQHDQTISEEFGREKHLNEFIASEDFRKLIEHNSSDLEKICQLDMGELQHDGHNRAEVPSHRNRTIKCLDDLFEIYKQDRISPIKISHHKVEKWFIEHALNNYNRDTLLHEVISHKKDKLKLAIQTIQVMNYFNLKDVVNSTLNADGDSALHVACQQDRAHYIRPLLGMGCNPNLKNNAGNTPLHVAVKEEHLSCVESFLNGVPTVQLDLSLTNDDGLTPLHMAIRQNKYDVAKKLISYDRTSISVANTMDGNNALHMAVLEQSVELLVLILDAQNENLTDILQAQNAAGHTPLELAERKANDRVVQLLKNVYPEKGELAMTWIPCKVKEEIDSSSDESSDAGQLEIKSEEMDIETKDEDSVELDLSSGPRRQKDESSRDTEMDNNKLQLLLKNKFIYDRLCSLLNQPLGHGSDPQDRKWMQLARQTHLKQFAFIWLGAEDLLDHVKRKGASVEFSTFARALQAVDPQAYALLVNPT
The data set can be described thus: SPR; Biacore 3000, room temperature; IkB or Ank immobilised on CM5 by amine coupling (about 5500 RU); Rel homodimer as analyte, kinetic titration, five doubling injections (typically 160 nM to 2.56 uM), 60 or 90 s, 30 uL/min; 10 mM HEPES pH 7.4, 150 mM NaCl, 3.4 mM EDTA, 0.005% P20; 1:1 Langmuir fit. To be noted: both partners purified.

Data set [3] concerns the target T3, Ank-H4 of Microplitis demolitor bracovirus, full length, N-terminal His tag (Microplitis demolitor bracovirus (MdBV)).
T3 construct: Ank-H4, Microplitis demolitor bracovirus (MdBV), GenBank AY875685; consists of only an ankyrin repeat domain; amplified from MdBV genomic DNA; pET-30-EK-LIC; source: E. coli BL21 (DE3), purified (Ni-NTA); not shown: His6, N-terminal, kept
The data set is described as above. To be noted: both partners purified.

For data set [4], the target named is T1, Dif, truncated (RHD, NLS and 20 …). The data set is described as follows: SEC; gel filtration of each purified recombinant protein, compared with molecular mass standards. To be noted: both partners purified.
For data set [5], the target named is T4, Cactus, truncated form consisting of its ankyrin repeat domain, N-terminal His tag (Drosophila melanogaster).
T4 chain: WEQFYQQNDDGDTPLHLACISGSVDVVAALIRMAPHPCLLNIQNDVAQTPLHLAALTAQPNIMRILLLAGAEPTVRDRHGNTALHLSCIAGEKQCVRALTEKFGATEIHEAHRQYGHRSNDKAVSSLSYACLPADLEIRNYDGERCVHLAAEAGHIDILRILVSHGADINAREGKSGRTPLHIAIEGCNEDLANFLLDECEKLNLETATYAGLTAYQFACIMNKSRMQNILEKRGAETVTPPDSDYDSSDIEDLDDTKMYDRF
The data set can be described thus: SPR; Biacore 3000, room temperature; IkB or Ank immobilised on CM5 by amine coupling (about 5500 RU); Rel homodimer as analyte, kinetic titration, five doubling injections (typically 160 nM to 2.56 uM), 60 or 90 s, 30 uL/min; 10 mM HEPES pH 7.4, 150 mM NaCl, 3.4 mM EDTA, 0.005% P20; 1:1 Langmuir fit. To be noted: both partners purified.

Data set [6] concerns the molecule itself. The data set can be described thus: SEC; gel filtration of each purified recombinant protein, compared with molecular mass standards. In general terms: Size exclusion chromatography separates by hydrodynamic size, large species first.

T3 sequence (Q5I144 whole entry, the tested form may be a part): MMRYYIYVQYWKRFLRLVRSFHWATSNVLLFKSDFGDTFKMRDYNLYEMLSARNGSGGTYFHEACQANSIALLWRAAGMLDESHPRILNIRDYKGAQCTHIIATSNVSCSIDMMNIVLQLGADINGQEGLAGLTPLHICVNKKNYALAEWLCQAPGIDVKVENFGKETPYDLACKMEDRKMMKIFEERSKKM

B1: Cactus, truncated form consisting of its ankyrin repeat domain, N-terminal His tag (domain or fragment)
chain: WEQFYQQNDDGDTPLHLACISGSVDVVAALIRMAPHPCLLNIQNDVAQTPLHLAALTAQPNIMRILLLAGAEPTVRDRHGNTALHLSCIAGEKQCVRALTEKFGATEIHEAHRQYGHRSNDKAVSSLSYACLPADLEIRNYDGERCVHLAAEAGHIDILRILVSHGADINAREGKSGRTPLHIAIEGCNEDLANFLLDECEKLNLETATYAGLTAYQFACIMNKSRMQNILEKRGAETVTPPDSDYDSSDIEDLDDTKMYDRF
modifications: Limits come from the Table S1 cactus primers. The forward primer, after the LIC extension …, encodes WEQFYQQN. The reverse primer encodes DTKMYDRF followed by a stop. Positions were …
The Kd is the constant that tells how readily two partners part at equilibrium. Read a low Kd as a tighter complex. As usually defined, the koff is the rate constant with which the complex falls apart. High values mean fast dissociation, low ones slow dissociation. What is called kon is a measure of how fast the partners come together. In data set [1], B1 gave a Kd of 110 nM, a koff of 0.00578 s⁻¹ and a kon of 52500 M⁻¹ s⁻¹.

B2: Dif, truncated (RHD, NLS and 20 additional C-terminal residues), StrepTagII-tagged (domain or fragment)
chain: PHLRIVEEPTSNIIRFRYKCEGRTAGSIPGMNSSSETGKTFPTIEVCNYDGPVIIVVSCVTSDEPFRQHPHWLVSKEEADACKSGIYQKKLPPEERRLVLQKVGIQCAKKLEMRDSLVERERRNIDPFNAKFDHKDQIDKINRYELRLCYQAFITVGNSKVPLDPIVSSPIYGKSSELTITRLCSCAATANGGDEIIMLCEKIAKDDIEVRFYETDKDGRETWFANAEFQPTDVFKQMAIAFKTPRYRNTEITQSVNVELKLVRPSDGATSAPLPFEYYPNPELLTKHNRRVAQKTVESLKRSLMSTNLHP
modifications: homodimer by gel filtration; StrepTagII left out. Limits: RHD start 78 and NLS end 368 from UniProt features, plus 20 residues; exact limits are only in Figure 1A
Take B2: in data set [2], the dissociation constant Kd turned out to be 1840 nM, the koff was determined as 0.000966 s⁻¹ and the kon came out at 524 M⁻¹ s⁻¹. In data set [3], this molecule returned a dissociation constant (Kd) of 581 nM, a koff of 0.00384 s⁻¹ and an association rate constant (kon) of 6620 M⁻¹ s⁻¹.

B3: Dif, truncated (RHD, NLS and 20 additional C-terminal residues), StrepTagII-tagged (domain or fragment)
chain: PHLRIVEEPTSNIIRFRYKCEGRTAGSIPGMNSSSETGKTFPTIEVCNYDGPVIIVVSCVTSDEPFRQHPHWLVSKEEADACKSGIYQKKLPPEERRLVLQKVGIQCAKKLEMRDSLVERERRNIDPFNAKFDHKDQIDKINRYELRLCYQAFITVGNSKVPLDPIVSSPIYGKSSELTITRLCSCAATANGGDEIIMLCEKIAKDDIEVRFYETDKDGRETWFANAEFQPTDVFKQMAIAFKTPRYRNTEITQSVNVELKLVRPSDGATSAPLPFEYYPNPELLTKHNRRVAQKTVESLKRSLMSTNLHP
modifications: homodimer by gel filtration; StrepTagII left out. Limits: RHD start 78 and NLS end 368 from UniProt features, plus 20 residues; exact limits are only in Figure 1A / homodimer by gel filtration …
Broadly, the stoichiometry N is a count of units in the complex or per binding partner. Turning to B3, the “stoichiometry N” value in data set [4] amounted to 2.

B4: Relish, truncated (RHD, NLS and 20 additional C-terminal residues), StrepTagII-tagged (domain or fragment)
chain: KHVPQLRIVEQPVEKFRFRYKSEMHGTHGSLNGANSKRTPKTFPEVTLCNYDGPAVIRCSLFQTNLDSPHSHQLVVRKDDRDVCDPHDLHVSKERGYVAQFINMGIIHTAKKYIFEELCKKKQDRLVFQMNRRELSHKQLQELHQETEREAKDMNLNQVRLCFEAFKIEDNGAWVPLAPPVYSNAINNRKSAQTGELRIVRLSKPTGGVMGNDELILLVEKVSKKNIKVRFFEEDEDGETVWEAYAKFRESDVHHQYAIVCQTPPYKDKDVDREVNVYIELIRPSDDERSFPALPFRYKPRSVIVSRKRRRTGSSANSSSSGTESSNNSLD
modifications: Limits come from the Table S1 cactus primers. The forward primer, after the LIC extension …, encodes WEQFYQQN. The reverse primer encodes DTKMYDRF followed by a stop. Positions were …
In data set [5], B4 gave an equilibrium dissociation constant (Kd) of 2190 nM, a koff of 0.00241 s⁻¹ and a kon of 1100 M⁻¹ s⁻¹.

B5: Dorsal, truncated (RHD, NLS and 20 additional C-terminal residues), StrepTagII-tagged (domain or fragment)
chain: PYVKITEQPAGKALRFRYECEGRSAGSIPGVNSTPENKTYPTIEIVGYKGRAVVVVSCVTKDTPYRPHPHNLVGKEGCKKGVCTLEINSETMRAVFSNLGIQCVKKKDIEAALKAREEIRVDPFKTGFSHRFQPSSIDLNSVRLCFQVFMESEQKGRFTSPLPPVVSEPIFDKKAMSDLVICRLCSCSATVFGNTQIILLCEKVAKEDISVRFFEEKNGQSVWEAFGDFQHTDVHKQTAITFKTPRYHTLDITEPAKVFIQLRRPSDGVTSEALPFEYVPMDSDPAHLRRKRQKTGGDPMHLLLQQQQKQQLQN
modifications: Limits come from the Table S1 cactus primers. The forward primer, after the LIC extension …, encodes WEQFYQQN. The reverse primer encodes DTKMYDRF followed by a stop. Positions were …
In data set [5], B5 registered an equilibrium dissociation constant (Kd) of 195 nM, a koff of 0.00193 s⁻¹ and an on-rate constant (kon) of 9890 M⁻¹ s⁻¹.

B6: Dif, truncated (RHD, NLS and 20 additional C-terminal residues), N-terminal thioredoxin fusion (domain or fragment)
chain: PHLRIVEEPTSNIIRFRYKCEGRTAGSIPGMNSSSETGKTFPTIEVCNYDGPVIIVVSCVTSDEPFRQHPHWLVSKEEADACKSGIYQKKLPPEERRLVLQKVGIQCAKKLEMRDSLVERERRNIDPFNAKFDHKDQIDKINRYELRLCYQAFITVGNSKVPLDPIVSSPIYGKSSELTITRLCSCAATANGGDEIIMLCEKIAKDDIEVRFYETDKDGRETWFANAEFQPTDVFKQMAIAFKTPRYRNTEITQSVNVELKLVRPSDGATSAPLPFEYYPNPELLTKHNRRVAQKTVESLKRSLMSTNLHPSKQV
Consider B6, for which the “stoichiometry N” value in data set [6] stood at 2.

The values above are taken from article PMC3359993, “Polydnavirus Ank Proteins Bind NF-κB Homodimers and Inhibit Processing of Relish” (PLoS Pathogens, 2012).
